This data set deals with the molecule itself. The data set can be described thus: SEC-MALS; separately pooled dimer peak of a size exclusion run; Superdex S200 10/300 GL, 20 mM Tris-HCl pH 8, 150 mM NaCl, 0.2 mM TCEP, 0.5 ml/min. Background: Size exclusion chromatography separates by hydrodynamic size, large species first.

For orientation: stoichiometry N means a count of units in the complex or per binding partner.

B1: human α-catenin (residues 22–906) (domain or fragment, UniProt P35221 22-906, looked up)
chain: TLAVERLLEPLVTQVTTLVNTNSKGPSNKKRGRSKKAHVLAASVEQATENFLEKGDKIAKESQFLKEELVAAVEDVRKQGDLMKAAAGEFADDPCSSVKRGNMVRAARALLSAVTRLLILADMADVYKLLVQLKVVEDGILKLRNAGNEQDLGIQYKALKPEVDKLNIMAAKRQQELKDVGHRDQMAAARGILQKNVPILYTASQACLQHPDVAAYKANRDLIYKQLQQAVTGISNAAQATASDDASQHQGGGGGELAYALNNFDKQIIVDPLSFSEERFRPSLEERLESIISGAALMADSSCTRDDRRERIVAECNAVRQALQDLLSEYMGNAGRKERSDALNSAIDKMTKKTRDLRRQLRKAVMDHVSDSFLETNVPLLVLIEAAKNGNEKEVKEYAQVFREHANKLIEVANLACSISNNEEGVKLVRMSASQLEALCPQVINAALALAAKPQSKLAQENMDLFKEQWEKQVRVLTDAVDDITSIDDFLAVSENHILEDVNKCVIALQEKDVDGLDRTAGAIRGRAARVIHVVTSEMDNYEPGVYTEKVLEATKLLSNTVMPRFTEQVEAAVEALSSDPAQPMDENEFIDASRLVYDGIRDIRKAVLMIRTPEELDDSDFETEDFDVRSRTSVQTEDDQLIAGQSARAIMAQLPQEQKAKIAEQVASFQEEKSKLDAEVSKWDDSGNDIIVLAKQMCMIMMEMTDFTRGKGPLKNTSDVISAAKKIAEAGSRMDKLGRTIADHCPDSACKQDLLAYLQRIALYCHQLNICSKVKAEVQNLGGELVVSGVDSAMSLIQAAKNLMNAVVQTVKASYVASTKYQKSQGMASLNLPAVSWKMKAPEKKPLVKREKQDETQTKIKRASQKKHVNPVQALSEFKAMDSI
notes: Modified pET28 vector; By the printed forward primer the residues GPHM would remain before T22 after PreScission cleavage (surmise); The dimer was used for the complex with F-actin; in the map only residues 710–871 are ordered; also called Δ1–21 α-catenin; human dimeric α-catenin Δ1–21; source: E. coli BL21(DE3), purified (HisTrap, PreScission cleavage, reverse HisTrap, Superdex S200); not shown: …
With B1, the “stoichiometry N” value came out at 2.

B2: human α-catenin Δ1–81 (domain or fragment, UniProt P35221 82-906, looked up)
chain: ESQFLKEELVAAVEDVRKQGDLMKAAAGEFADDPCSSVKRGNMVRAARALLSAVTRLLILADMADVYKLLVQLKVVEDGILKLRNAGNEQDLGIQYKALKPEVDKLNIMAAKRQQELKDVGHRDQMAAARGILQKNVPILYTASQACLQHPDVAAYKANRDLIYKQLQQAVTGISNAAQATASDDASQHQGGGGGELAYALNNFDKQIIVDPLSFSEERFRPSLEERLESIISGAALMADSSCTRDDRRERIVAECNAVRQALQDLLSEYMGNAGRKERSDALNSAIDKMTKKTRDLRRQLRKAVMDHVSDSFLETNVPLLVLIEAAKNGNEKEVKEYAQVFREHANKLIEVANLACSISNNEEGVKLVRMSASQLEALCPQVINAALALAAKPQSKLAQENMDLFKEQWEKQVRVLTDAVDDITSIDDFLAVSENHILEDVNKCVIALQEKDVDGLDRTAGAIRGRAARVIHVVTSEMDNYEPGVYTEKVLEATKLLSNTVMPRFTEQVEAAVEALSSDPAQPMDENEFIDASRLVYDGIRDIRKAVLMIRTPEELDDSDFETEDFDVRSRTSVQTEDDQLIAGQSARAIMAQLPQEQKAKIAEQVASFQEEKSKLDAEVSKWDDSGNDIIVLAKQMCMIMMEMTDFTRGKGPLKNTSDVISAAKKIAEAGSRMDKLGRTIADHCPDSACKQDLLAYLQRIALYCHQLNICSKVKAEVQNLGGELVVSGVDSAMSLIQAAKNLMNAVVQTVKASYVASTKYQKSQGMASLNLPAVSWKMKAPEKKPLVKREKQDETQTKIKRASQKKHVNPVQALSEFKAMDSI
notes: also called human dimeric α-catenin Δ1–81; human monomeric α-catenin Δ1–81; source: E. coli BL21(DE3) (said of all α-catenin constructs)
Consider B2, for which the “stoichiometry N” value worked out at 2.

B3: full-length human α-catenin (residues 1–906) (natural protein, UniProt P35221 1-906, looked up)
chain: MTAVHAGNINFKWDPKSLEIRTLAVERLLEPLVTQVTTLVNTNSKGPSNKKRGRSKKAHVLAASVEQATENFLEKGDKIAKESQFLKEELVAAVEDVRKQGDLMKAAAGEFADDPCSSVKRGNMVRAARALLSAVTRLLILADMADVYKLLVQLKVVEDGILKLRNAGNEQDLGIQYKALKPEVDKLNIMAAKRQQELKDVGHRDQMAAARGILQKNVPILYTASQACLQHPDVAAYKANRDLIYKQLQQAVTGISNAAQATASDDASQHQGGGGGELAYALNNFDKQIIVDPLSFSEERFRPSLEERLESIISGAALMADSSCTRDDRRERIVAECNAVRQALQDLLSEYMGNAGRKERSDALNSAIDKMTKKTRDLRRQLRKAVMDHVSDSFLETNVPLLVLIEAAKNGNEKEVKEYAQVFREHANKLIEVANLACSISNNEEGVKLVRMSASQLEALCPQVINAALALAAKPQSKLAQENMDLFKEQWEKQVRVLTDAVDDITSIDDFLAVSENHILEDVNKCVIALQEKDVDGLDRTAGAIRGRAARVIHVVTSEMDNYEPGVYTEKVLEATKLLSNTVMPRFTEQVEAAVEALSSDPAQPMDENEFIDASRLVYDGIRDIRKAVLMIRTPEELDDSDFETEDFDVRSRTSVQTEDDQLIAGQSARAIMAQLPQEQKAKIAEQVASFQEEKSKLDAEVSKWDDSGNDIIVLAKQMCMIMMEMTDFTRGKGPLKNTSDVISAAKKIAEAGSRMDKLGRTIADHCPDSACKQDLLAYLQRIALYCHQLNICSKVKAEVQNLGGELVVSGVDSAMSLIQAAKNLMNAVVQTVKASYVASTKYQKSQGMASLNLPAVSWKMKAPEKKPLVKREKQDETQTKIKRASQKKHVNPVQALSEFKAMDSI
notes: Cloned into pGEX-6P-1; residues of the PreScission site may remain at the N-terminus after cleavage; The same protein elutes as a monomer peak and a dimer peak, which were pooled separately; also called human monomeric α-catenin; human dimeric α-catenin; source: E. coli BL21(DE3), purified (GST Sepharose, PreScission cleavage, Superdex S200; monomer and dimer peaks pooled separately); not shown: …
As to B3, the “stoichiometry N” value worked out at 2.

The values are drawn from paper PMC10020564, “Distinct inter-domain interactions of dimeric versus monomeric α-catenin link cell junctions to filaments” (Communications Biology, 2023).
